Results: the supplement of paper PMC12636428

Each sequence was assayed on Saccharomyces cerevisiae (assay: transcriptional activation domain activity (GFP:mCherry ratio, weighted mean of sorted bins, harmonized to initial dataset scale) (arbitrary fluorescence ratio units); higher = stronger transcriptional activation). Conditions: beta-estradiol 1 µM; induction time 4 h.
In short: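 For this assay, yeast diploids with a GFP reporter carried barcoded protein tiles at URA3, each fused to an estradiol-inducible synthetic transcription factor. Induction was a 1:5 dilution into SC with 1 uM beta-estradiol for 4 hours at 30 °C, followed by sorting into 8 bins by GFP:mCherry ratio and barcode sequencing. Tiles under 50 reads were dropped, and activation activity was calculated as the read-weighted mean of bin median fluorescence, averaged across barcodes and linearly mapped onto the initial dataset scale.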
For “LDFLDLWTFWPWTFWPWTFWTVGLFGLLALDLLALDFLDLWTFWPWTFWPWTF”, the “transcriptional activation domain activity” value was 60400. “MILMLLLLLLLLLLLLVMVLLLLLVMVLLVVLLVLLWVLLLMLLWVLLGVLLG” was tested, and the “transcriptional activation domain activity” value was 16200. For “VGTLHENLSSSHFMIPDVDQFNSFEDFFQDFFDSLKPNSQKMFTSDKKTEQTT”, the “transcriptional activation domain activity” value was 106000. In the case of “TGAKAPEGGKQLIVVVSSDKGLCGGIHSAVTKKTRQEYAAAPAEDKPQLIVVG”, the “transcriptional activation domain activity” value is reported as 63400. “CGRCRCCRGLLPLYPHHPFSFFVLLCIPGMFLLLLVHWMFLSFVSGFAILVPE” was tested, and the “transcriptional activation domain activity” value was 79500. For “RIMLQNAILPWFGKHDLRGKVFGCQIIELFHIFGMSFLNWIWSSGLVLATFPP”, the “transcriptional activation domain activity” value was 56600. “SNASLSAQHPLGIDEEDLSSKPRCQRCRKSKKGCDRQRPCGRCKDAGIGIEGC” was tested, and the “transcriptional activation domain activity” value was 35300. With “FVGFVGSLKRQFLRQQFGLFCWVHMSLLLIVCASHFVMNNILEGMIWFWVPAS” the “transcriptional activation domain activity” value was 60400. For “MSDDLGASPTQRPLRKSHRKSRKGCLDCRRRRVKCGEERPSCLVCVRRNVRCE”, the “transcriptional activation domain activity” value was 49200. “GGLFGAKPATTGGLFGSTPAAQPAQTGGLFGGGGTTGGFGASTTGGAFGSTPA” was tested, and the “transcriptional activation domain activity” value was 48500. For “APPPPPPPPPPAPPARSGAPPPPPPPPPPPMGGAPPPPPPPMGGPPPPPPPPP”, the “transcriptional activation domain activity” value was 36400. For “DAARGGYQSAGGAGTGSDSETNRGRGRGGRGGFRGERGGRGRGRGATPAKTEG”, the “transcriptional activation domain activity” value was 27200. With “GASTSAFGTPSALGAKPNPFGTPATGGAFGQPAAAPAFGQPTQPAGAFGQPAQ” the “transcriptional activation domain activity” value was 40300. In the case of “LNILTSVWAVPVVITLIQALLVMRVCMLFCFNLRVTLCLWALLFASATVSVVL”, the “transcriptional activation domain activity” value is reported as 51200. For “LFCLPDTAACGAMHAWRSWATSFLLFSFFAAICGQFFSLLFSYLLLFLCYWVI”, the “transcriptional activation domain activity” value was 42900. For “MMLVQSIPVSRDVILGVLLRLLAPTVFLSSVVLALLLVSTLCKIPKQGRLRAW”, the “transcriptional activation domain activity” value was 64600. For “QTWGVYKRTGGINMYIVSIWVNWFANSIIGILSWLYLWGTIETSFWFFFFLLL”, the “transcriptional activation domain activity” value was 75500. With “KSRKRAKKSPEESEVESKHRRRRSRKAVEDENDENSHCKRTKKVAGAESEKAV” the “transcriptional activation domain activity” value was 19700. For “VTCGLLKVAIDLINHFPLFALVLRVKDPRRLPGSTYFRVIHDKGQTILMLEVD”, the “transcriptional activation domain activity” value was 40300. For “MPNDWFIYGCIFLECYISYGVYIRVWFLLMDFVLGPISHLSIYFLWIWFILLC”, the “transcriptional activation domain activity” value was 66900. In the case of “ANLYVVLTLYSYTWIQVLIVSLSILLYFVFIAIYSQFNTFIFAGHIRLFGNGL”, the “transcriptional activation domain activity” value is reported as 57500. With “IKPEEPVVAAAEEPATAPVVEETKPEEVAAEVAAEEDAAPVEEATPAEEVKPE” the “transcriptional activation domain activity” value was 12400. With “AWCHLSVVGRASNLVVYLLIRARKLQLDLGLGFYQRSLLMLCEKLIVVDIFSL” the “transcriptional activation domain activity” value was 63400. In the case of “NTMQFSMNLGNSTVSGPFSGLVNGLTPKGTNMEPSLWASWSYYALWLPTWGTT”, the “transcriptional activation domain activity” value is reported as 52100. In the case of “AASWILLGFFIKQLYEEFGWAIFHVVGANPKMKTMYQWYQIMICLLKFDFFFF”, the “transcriptional activation domain activity” value is reported as 48500. “FFDDIPDTLESIRKHIDLFGNDFYLAHIYRTLRWWTKPTHVAVLGDLLGSQWI” was tested, and the “transcriptional activation domain activity” value was 70300. In the case of “DQSEISRTTSRSDTPLRDEDGLDFWETLRSLATTNPNPPVEKSAENDGAKPQV”, the “transcriptional activation domain activity” value is reported as 41100. For “MSTAAVNEVTETLAATAISNPTNGAAANEATAASADEGRRLYIGNLAYATTEG”, the “transcriptional activation domain activity” value was 36000. With “MFCLRSWIPVLFFLLRTHASPVYLVLFISATYFLNRPCVYCSLLLFILVVALF” the “transcriptional activation domain activity” value was 84400. For “IIHLVNLAQVTVFLVHRILYGIIPLFEIQTCAYFPLLVSLWHMTYILFYVVMF”, the “transcriptional activation domain activity” value was 36100. With “MISWLLCFFDFRGDFLYGVLFFCTIFCFAVFGFFFFLQPSTFSFTIFFLCFFS” the “transcriptional activation domain activity” value was 31000. For “TRMLLHWFHCQDNVWYYYVAFFFAELLVYTVMIVSIGSILFQWRFFCRVAYKM”, the “transcriptional activation domain activity” value was 32000. “APSAARRSHTKSSPSSGTSPSGPPSARTSSRCTPPPRSSSPSGRRRSSCCKRS” was tested, and the “transcriptional activation domain activity” value was 45900. In the case of “EQQCICNYITSDPIWLIPLLGLLHRRLMYKVRLIYPFHISLANAFVTVCFHWL”, the “transcriptional activation domain activity” value is reported as 80900.
